Assay results reported in US20230303680A1 (UNIVERSIT T Z RICH, published 2023).
Each block holds one binder with its values, some of them ahead of it.

What was measured:
[1] = biological target: T1, human interleukin-2 (recombinant human IL-2, teceleukin) (human, UniProt P60568 21-153); assay: SPR, mAb immobilized, IL-2 injected
T1 construct: also called hIL-2; rhIL-2
Method: Chip surface was regenerated after every cycle using glycine buffer pH 1.5. Measurements were acquired at 20° C. and analysed on a Biacore T100 (GE Healthcare).

[2] = biological target: T1, human interleukin-2 (recombinant human …); assay: single-cycle surface plasmon resonance (SPR)
[3] = biological target: T1, human interleukin-2 (recombinant human …); assay: single-cycle SPR
[4] = biological target: T1, human interleukin-2 (recombinant human …); assay: SPR (Table 1)
[5] = biological target: T2, mouse IL-2 (mouse, UniProt P04351 21-169); assay: SPR (Table 1)
T2 sequence (looked up): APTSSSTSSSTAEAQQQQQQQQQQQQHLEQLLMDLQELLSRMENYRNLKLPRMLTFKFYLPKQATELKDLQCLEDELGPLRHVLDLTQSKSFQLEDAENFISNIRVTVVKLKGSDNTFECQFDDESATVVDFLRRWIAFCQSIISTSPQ

T1 sequence (P60568 21-153 limits assumed): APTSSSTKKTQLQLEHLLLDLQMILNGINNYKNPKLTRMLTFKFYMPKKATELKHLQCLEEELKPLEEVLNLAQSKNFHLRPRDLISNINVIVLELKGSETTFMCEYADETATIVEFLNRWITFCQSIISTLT

B1: UFKA-20 (mouse anti-human IL-2 monoclonal antibody) (antibody, V domains shown)
VH: EVMLVESGGGLVKPGGSLKLSCAASGFSFSNYAMSWVRQTPERRLEWVALISGGGSYSYYPDSLKGRFTISRDSARNSLYLQMSSLRSEDTAMYYCARHMGYNDYLAWFAYWGQGTLVTVSS
VL: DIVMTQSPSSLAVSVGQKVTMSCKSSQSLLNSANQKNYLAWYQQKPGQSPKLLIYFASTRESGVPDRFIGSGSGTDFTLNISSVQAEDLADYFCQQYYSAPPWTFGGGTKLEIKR
notes: Full mouse heavy and light chains; also called UFKA-20-00; 1+6
Kd [1]: 2.3 nM | koff [1]: 0.000391 s⁻¹ | kon [1]: 257000 M⁻¹ s⁻¹ | Kd [2]: 0.788 nM

B4: F5111 (anti-human IL-2 mAb) (antibody, V domains shown)
VH: QLQLQESGPGLVKPSQTLSLTCTVSGGSISSGGYYWSWIRQHPGKGLEWIGYIYYSGSTYYNPSLKSRVTISVDTSKNQFSLKLSSVTAADTAVYYCARTPTVTGDWFDPWGRGTLVTVSS
VL: NFMLTQPHSVSESPGKTVTISCTRSSGSIASNYVQWYQQRPGSSPTTVIYEDNQRPSGVPDRFSGSIDSSSNSASLTISGLKTEDEADYYCQSYDSSNVVFGGGTKLTVL
Kd [4]: 1.88 nM | koff [4]: 0.00711 s⁻¹ | kon [4]: 3.78e+06 M⁻¹ s⁻¹

Continued, values first:

Kd [3]: 0.186 nM
B2: UFKA-20 variant 5+9 (antibody, V domains shown)
VH: EVMLVESGGGLVKPGGSLKLSCAASGFSFSNYAMSWVRQTPERRLEWVALISGGGRYSYYPDSLKGRFTISRDSARNSLYLQMSSLRSEDTAMYYCARHLGHNDYLAWFAYWGQGTLVTVSS
VL: DIVMTQSPSSLAVSVGQKVTMSCKSSQSLLNSANQRNYLAWYQQKPGQSPKLLIYWASTRESGVPDRFIGSGSGTDFTLNISSVQAEDLADYFCQQYYSAPPWTFGGGTKLEIKR

Kd [3]: 64 nM
B3: UFKA-20 variant 2+9 (antibody, V domains shown)
VH: EVMLVESGGGLVKPGGSLKLSCAASGFSFSNYAMSWVRQTPERRLEWVALISGGGRYSYYPDSLKGRFTISRDSARNSLYLQMSSLRSEDTAMYYCARHMGKNDYLAWFAYWGQGTLVTVSS
VL: DIVMTQSPSSLAVSVGQKVTMSCKSSQSLLNSANQRNYLAWYQQKPGQSPKLLIYWASTRESGVPDRFIGSGSGTDFTLNISSVQAEDLADYFCQQYYSAPPWTFGGGTKLEIKR

Kd [5]: 5.6 nM
B5: JES6-1 (anti-mouse IL-2 mAb) (antibody, V domains shown)
VH: EIQLQQSGPELRRPGSSVKLSCKASGYNITDYLIHWVRHRPEHGLEWIGWIDPEDGETRYAQKFQSKATLTADTSSNAAYMQLSSLTPEDTATYFCARSLDSTYIYPFAYWGQGTLVTVSS
VL: DIVMTQSPFSLAVSEGEMVTINCKSSQSLLSSGNQKNYLAWYQQKPGQSPKLLIYYASTGQSGVPDRFIGSGSGTDFTLTISDVQAEDLADYYCLQHYISPPTFGAGTKLELK
